The labels stand for the following.
B1: Mitochondrial import inner membrane translocase subunit TIM50 (Saccharomyces cerevisiae), Q02776 (parent)
chain: MLSILRNSVRLNSRALRVVPSAANTLTSVQASRRLLTSYSSFLQKETKDDKPKSILTDDMLFKAGVDVDEKGQGKNEETSGEGGEDKNEPSSKSEKSRRKRQTSTDIKREKYANWFYIFSLSALTGTAIYMARDWEPQESEELKKDIDNGYTLSLMYKRFKARFNSMFTYFQEPPFPDLLPPPPPPPYQRPLTLVITLEDFLVHSEWSQKHGWRTAKRPGADYFLGYLSQYYEIVLFSSNYMMYSDKIAEKLDPIHAFVSYNLFKEHCVYKDGVHIKDLSKLNRDLSKVIIIDTDPNSYKLQPENAIPMEPWNGEADDKLVRLIPFLEYLATQQTKDVRPILNSFEDKKNLAEEFDHRVKKLKDKFYGDHKSGGNWAMTALGLGNSLGGSTKFPLDLIHEEGQKNYLMFMKMIEEEKEKIRIQQEQMGGQTFTLKDYVEGNLPSPEEQMKIQLEKQKEVDALFEEEKKKKKIAESK
B2: ATP synthase subunit 9, mitochondrial (Neurospora crassa (strain ATCC 24698 / 74-OR23-1A / CBS 708.71 / DSM 1257 / FGSC 987)), P00842 (parent)
chain: MASTRVLASRLASQMAASAKVARPAVRVAQVSKRTIQTGSPLQTLKRTQMTSIVNATTRQAFQKRAYSSEIAQAMVEVSKNLGMGSAAIGLTGAGIGIGLVFAALLNGVARNPALRGQLFSYAILGFAFVEAIGLFDLMVALMAKFT
partner: B1 chain

The variants in one assay derive from B1. The settings on record: with atp9_neucr oli.
In the case of E414A, the “effect of a mutation on the interaction” value is on record as “decreasing interaction”.

Variants of B1 are the subject of another assay. The following applies: with atp9_neucr oli. This is another data set of the same source.
Regarding E415A, the “effect of a mutation on the interaction” value is given as “decreasing interaction”.

In another assay the parent is B1. The following applies: with atp9_neucr oli. The source holds these as a separate data set.
Turning to L434N, the “effect of a mutation on the interaction” value was “decreasing interaction”.

Another assay covers variants of B1. The following applies: with atp9_neucr oli. This is another data set of the same source.
I413A;D436A: the “effect of a mutation on the interaction” value is listed as “disrupting interaction”.

The next assay covers variants of B2. The following applies: with tim50_yeast TIM50, Q02776.
On to L7Q;A12Q;A16Q;A17Q, for which the “effect of a mutation on the interaction” value is reported as “disrupting interaction”.

The record behind these values is IntAct's records for PubMed 24462684.
